Target: T1, mouse asialoglycoprotein receptor 1 (ASGR1), FLAG tagged, expressed on CHO-S cells (mouse, UniProt P34927 1-284)
T1 sequence (looked up): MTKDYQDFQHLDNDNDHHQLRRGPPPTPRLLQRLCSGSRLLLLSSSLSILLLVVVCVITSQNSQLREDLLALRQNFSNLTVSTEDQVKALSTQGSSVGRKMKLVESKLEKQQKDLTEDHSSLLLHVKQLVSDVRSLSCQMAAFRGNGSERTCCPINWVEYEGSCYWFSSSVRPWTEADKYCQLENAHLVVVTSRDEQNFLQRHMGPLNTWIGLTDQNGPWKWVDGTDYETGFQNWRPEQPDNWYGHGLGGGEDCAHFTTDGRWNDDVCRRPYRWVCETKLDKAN
Experiment: flow cytometry on cells

B1: asialofetuin (ligand)
chain: IPLDPVAGYKEPACDDPDTEQAALAAVDYINKHLPRGYKHTLNQIDSVKVWPRRPTGEVYDIEIDTLETTCHVLDPTPLANCSVRQQTQHAVEGDCDIHVLKQDGQFSVLFTKCDSSPDSAEDVRKLCPDCPLLAPLNDSRVVHAVEVALATFNAESNGSYLQLVEISRAQFVPLPVSVSVEFAVAATDCIAKEVVDPTKCNLLAEKQYGFCKGSVIQKALGGEDVRVTCTLFQTQPVIPQPQPDGAEAEAPSAVPDAAGPTPSAAGPPVASVVVGPSVVAVPLPLHRAHYDLRHTFSGVASVESSSGEAFHVGKTPIVGQPSIPGGPVRLCPGRIRYFKI
modifications: biotinylated (site not stated); desialylated with neuraminidase
- EC50: 53 nM

Source: article PMC11275528 (mAbs, 2024)
